From US20240084003A1 (SIMCERE ZAIMING PHARMACEUTICAL, published 2024)

T1: human CD22 domain5-7-His (human, UniProt P20273 414-687)
T1 construct: also called hCD22 domain5-7-His; not shown: His tag
T1 sequence: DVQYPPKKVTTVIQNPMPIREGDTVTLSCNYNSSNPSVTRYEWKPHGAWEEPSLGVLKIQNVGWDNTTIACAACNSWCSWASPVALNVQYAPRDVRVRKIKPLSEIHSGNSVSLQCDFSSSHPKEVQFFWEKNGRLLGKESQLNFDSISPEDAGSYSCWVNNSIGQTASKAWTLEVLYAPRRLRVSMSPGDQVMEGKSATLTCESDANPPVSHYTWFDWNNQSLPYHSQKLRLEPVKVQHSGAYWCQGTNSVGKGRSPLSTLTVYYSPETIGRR

T2: human CD22-ECD-His protein (human, UniProt P20273 20-687)
T2 construct: Recombinant, from HEK293E cells; also called hCD22-ECD-His; human CD22-His protein; not shown: His tag
T2 sequence: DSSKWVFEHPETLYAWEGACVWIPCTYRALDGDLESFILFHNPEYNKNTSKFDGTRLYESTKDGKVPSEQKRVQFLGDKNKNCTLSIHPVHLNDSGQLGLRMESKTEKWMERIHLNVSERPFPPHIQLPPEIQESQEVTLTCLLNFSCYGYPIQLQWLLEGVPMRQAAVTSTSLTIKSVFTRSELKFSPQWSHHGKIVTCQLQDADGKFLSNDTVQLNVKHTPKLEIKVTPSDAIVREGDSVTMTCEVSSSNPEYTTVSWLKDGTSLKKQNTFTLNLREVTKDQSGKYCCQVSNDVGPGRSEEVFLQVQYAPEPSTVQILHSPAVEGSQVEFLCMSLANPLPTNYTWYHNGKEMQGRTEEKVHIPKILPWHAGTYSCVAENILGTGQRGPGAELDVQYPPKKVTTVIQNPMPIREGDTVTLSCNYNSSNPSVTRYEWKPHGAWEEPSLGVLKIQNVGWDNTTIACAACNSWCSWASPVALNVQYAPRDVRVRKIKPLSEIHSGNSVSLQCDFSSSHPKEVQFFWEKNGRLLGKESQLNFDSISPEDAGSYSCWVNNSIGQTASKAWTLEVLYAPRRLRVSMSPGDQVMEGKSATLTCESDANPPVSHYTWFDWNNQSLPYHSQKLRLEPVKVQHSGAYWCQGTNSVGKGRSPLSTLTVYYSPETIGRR

T3: rhesus monkey CD22-ECD-His protein (rhesus monkey, UniProt H9G1X2 18-686)
T3 construct: extracellular domain; also called monkey CD22 protein
T3 sequence: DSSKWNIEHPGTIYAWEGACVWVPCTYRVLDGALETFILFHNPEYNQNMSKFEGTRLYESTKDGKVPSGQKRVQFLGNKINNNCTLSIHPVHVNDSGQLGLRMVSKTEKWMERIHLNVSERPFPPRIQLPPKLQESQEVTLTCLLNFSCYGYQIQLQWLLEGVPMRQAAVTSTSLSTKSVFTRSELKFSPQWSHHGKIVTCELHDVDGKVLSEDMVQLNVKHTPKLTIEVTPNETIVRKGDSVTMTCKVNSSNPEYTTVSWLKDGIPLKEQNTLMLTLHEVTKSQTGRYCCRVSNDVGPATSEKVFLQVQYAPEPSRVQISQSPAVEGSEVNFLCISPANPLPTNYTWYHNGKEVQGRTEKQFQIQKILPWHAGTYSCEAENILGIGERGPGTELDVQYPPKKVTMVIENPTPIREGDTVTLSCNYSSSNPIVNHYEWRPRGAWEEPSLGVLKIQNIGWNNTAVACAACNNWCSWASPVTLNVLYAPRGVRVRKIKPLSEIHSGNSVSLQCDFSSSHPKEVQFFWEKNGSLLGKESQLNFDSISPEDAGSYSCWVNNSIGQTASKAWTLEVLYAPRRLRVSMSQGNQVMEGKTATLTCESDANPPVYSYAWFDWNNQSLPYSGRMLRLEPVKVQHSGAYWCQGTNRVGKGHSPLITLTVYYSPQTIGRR

B1: F1.216.2 (antibody, human IgG1, kappa, V domains shown)
VH: QVQLQQSGPEVVRPGASVKISCKASGYAFSSSWMNWMKQRPGKALEWIGRIYPGDGDTNYSGEFKVKATLTADKSSSTAYMQLSSLTSEDSAVYFCAREGSYYSNPWYFDYWGQGTTLTVSS
VL: DVLVTQTPLSLPVSLGDQASISCRSSQSIVQSNGDTYLEWYLQKPGQSPKLLIYKVSNRFSGVPDRFSGSGSGTDFTLKISRVEAEDLGVYYCFQGSHVPFTFGSGTKLEIKR
notes: Chimeric IgG1 kappa
B2: F1.224.1 (antibody, human IgG1, kappa, V domains shown)
VH: EVLLHQSGPELVKPGASVKISCKASGYTFTDFNMDWVRQRHGQSLEWIGDVNPNNGGTIYNQKFKGKATLTVDKSSSTVYMDLRSLTSDDTAVYYCVRLGTSDYGEAWFISWGQGTVVTVSA
VL: DIVLTQSPASLAVSLGQRATISCRASQSVSTPRYSFMHWYQQKPGQPPKLLIKYASNLESGFPARFTGSGSGTDFTLNIHPVEEEDTAAYYCQQSWAIPWTFGGGTKLEIKR
notes: Chimeric IgG1 kappa
B3: F1.267.9 (antibody, human IgG1, kappa, V domains shown)
VH: EVQLQQSGPVLVKPGASVKMSCKASGYTFTDFYMNWAKQSHGKSLEWVGVINPYNGGINYNQKFKGKATLTVDKSSSTAYMEFNSLTSEDSAVYYCARRMEYHAMDYWGQGTSVTVSS
VL: DIVLTQSPASLAVSLGQRATISCRASESVDNYGFDFIHWYQQKPGQPPKLLIYRASNLESGIPARFSGSGSRPDFTLTINPVETDDVATYYCQQSIKDPWTFGGGTKLEIKR
notes: Chimeric IgG1 kappa
B4: F1.250.16 (antibody, human IgG1, kappa, V domains shown)
VH: QVQLQQSGAEQVKPGASVKMSCKASGYTFTTYPIEWMKQNHGESLDWIGNIHPYNDDTEYNEKFKGKATLTVEKSSNTVFLELSRLTSDDSAVYYCVRGDYYNSRYWYFDVWGTGTTVTVSS
VL: DIVMTQSQKFMSTTVGDRVSITCKAGQNVRTAVAWYQQKPGQSPKLLIYSASTRYIGVPERFTGSGSGTDFTLTITNMQSEDLADYFCQQYSSFPLTFGTGTKLELKR
notes: Chimeric IgG1 kappa
B5: F1.17.1 (antibody, human IgG1, kappa, V domains shown)
VH: QVQLKESGPGLVAPSQSLSITCTVSGFSLSRYTVHWVRQPPGKGLEWLGMIWGGGSTDYNSALKSRLSISKDNSKSQVFLKMNSLQTDDTAMYYCARPHDFDAGGFAYWGQGTLVTVSA
VL: QIVLTQSPAILSTSPGEKVTMTCSASSRVNYMYWYQQKPGSSPRLLIYDTSNLASGVPVRFSGSGSGTSYSLTISRMEAEDAATYYCQQWTSYPLTFGAGTKLELKR
notes: Chimeric IgG1 kappa
B6: F1.120.15 (antibody, human IgG1, kappa, V domains shown)
VH: QVQLQQSGPELVKPGASVKISCKASGNAFSNSWMNWVKQRPGKGLEWIGRVYSEDGDTQYNGKFRDKATLTADRSTSTAYMQLSSLTSEDSAVYFCARWLIYYGTYGAMDYWGQGTSVTVSS
VL: DIQMTQTTSSLSASLGDRVTISCRASQDINNYLNWYHQKPDGTVKLLIYFTSRPYSGVPSRFSGSGSGTDYSLTISNLEQEDIATYFCQQGNTLPWTFGGGTKLEIKR
notes: Chimeric IgG1 kappa

How the values were obtained:
human CD22 domain5-7-His = target: T1, human CD22 domain5-7-His; assay: ELISA, plate coated with human CD22 domain5-7-His
[1] = target: T2, human CD22-ECD-His protein; assay: SPR (Biacore), antibody captured on Protein A chip, CD22-ECD-His in solution
Method: Sample buffer and running buffer were HBS-EP+(10 mM HEPES, 150 mM NaCl, 3 mM EDTA, 0.05% surfactant P20) (GE Healthcare; BR-1006-69). The flow-through cell was set to 25° C. The sample block was set to 16° C. Both were pretreated with the running buffer. In each cycle, the antibody to be tested was first captured with a Protein A chip, then a single concentration of CD22 antigen protein was injected. The binding and dissociation process of the antibody and the antigen protein was recorded, and finally Glycine pH 1.5 (GE Healthcare; BR-1003-54) was used to complete chip regeneration. Binding was measured by injecting different concentrations of recombinant human CD22-ECD His protein in solution for 240 s with a flow rate of 30 μL/min. The concentration started from 200 nM (see the detailed results for the actual concentration in the test) and was diluted at 1:1, making a total of 5 concentrations. The dissociation phase was monitored for up to 600 s and was triggered by switching from sample solution to running buffer. The surface was regenerated by washing with a 10 mM of glycine solution (pH 1.5) for 30 s at a flow rate of 30 μL/min. Bulk refractive index difference was corrected by subtracting the response obtained from the goat anti-human Fc surface. Blank injection was also subtracted (=double reference). For calculation of apparent KD and other kinetic parameters, Langmuir 1:1 model was used.

[2] = target: T3, rhesus monkey CD22-ECD-His protein; assay: SPR (Biacore), antibody captured on Protein A chip, rhesus CD22 in solution

Binder	binding result (human CD22 domain5-7-His)	Kd [1] [nM]	koff [1] [s⁻¹]	kon [1] [M⁻¹ s⁻¹]	Kd [2] [nM]	koff [2] [s⁻¹]	kon [2] [M⁻¹ s⁻¹]
B1	no binding	25.3	0.000944	37300	7.18	0.000538	74900
B2	no binding	13.8	0.000267	19400	2.04	0.000107	52300
B3	no binding	40.9	0.000223	5440	2.25	6e-05	26700
B4	no binding	1.44	0.000607	422000	3.48	0.00127	366000
B5	no binding	2.07	0.000498	241000	3.67	0.000531	144000
B6	no binding	19.5	0.000232	11900	15.1	0.000637	42100
